Patent US20240327522A1 (Genentech, published 2024)

T1: recombinant human αvβ8 protein (PARS-17102) (human)
T1 construct: also called hu.aVb8.17102; not shown: C-terminal acid/basic coils and any purification tags
T1 alpha: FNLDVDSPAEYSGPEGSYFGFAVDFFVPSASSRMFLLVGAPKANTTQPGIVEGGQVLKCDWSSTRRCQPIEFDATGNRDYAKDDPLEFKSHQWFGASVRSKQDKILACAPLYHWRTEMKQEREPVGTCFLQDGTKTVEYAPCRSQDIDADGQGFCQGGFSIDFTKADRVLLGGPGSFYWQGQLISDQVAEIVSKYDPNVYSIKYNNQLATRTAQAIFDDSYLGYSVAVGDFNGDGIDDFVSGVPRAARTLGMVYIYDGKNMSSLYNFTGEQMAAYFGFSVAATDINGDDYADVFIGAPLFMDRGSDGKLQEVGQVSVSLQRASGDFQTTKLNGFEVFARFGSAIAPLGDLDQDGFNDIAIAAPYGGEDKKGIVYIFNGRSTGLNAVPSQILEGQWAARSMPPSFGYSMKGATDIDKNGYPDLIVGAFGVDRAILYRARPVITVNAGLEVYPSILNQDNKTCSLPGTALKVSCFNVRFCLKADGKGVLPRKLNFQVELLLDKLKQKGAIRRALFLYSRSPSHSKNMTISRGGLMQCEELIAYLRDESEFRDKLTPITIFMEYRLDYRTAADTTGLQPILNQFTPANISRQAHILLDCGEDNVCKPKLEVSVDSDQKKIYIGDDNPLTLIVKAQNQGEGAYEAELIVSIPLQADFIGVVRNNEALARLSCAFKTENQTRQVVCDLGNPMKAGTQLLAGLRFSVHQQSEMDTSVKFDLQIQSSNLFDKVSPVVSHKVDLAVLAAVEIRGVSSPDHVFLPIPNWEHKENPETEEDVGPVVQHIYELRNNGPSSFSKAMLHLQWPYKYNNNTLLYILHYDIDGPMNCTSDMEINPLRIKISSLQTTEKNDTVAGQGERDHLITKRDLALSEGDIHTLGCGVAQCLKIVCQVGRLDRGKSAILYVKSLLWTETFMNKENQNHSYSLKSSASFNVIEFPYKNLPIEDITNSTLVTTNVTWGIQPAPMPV
T1 beta: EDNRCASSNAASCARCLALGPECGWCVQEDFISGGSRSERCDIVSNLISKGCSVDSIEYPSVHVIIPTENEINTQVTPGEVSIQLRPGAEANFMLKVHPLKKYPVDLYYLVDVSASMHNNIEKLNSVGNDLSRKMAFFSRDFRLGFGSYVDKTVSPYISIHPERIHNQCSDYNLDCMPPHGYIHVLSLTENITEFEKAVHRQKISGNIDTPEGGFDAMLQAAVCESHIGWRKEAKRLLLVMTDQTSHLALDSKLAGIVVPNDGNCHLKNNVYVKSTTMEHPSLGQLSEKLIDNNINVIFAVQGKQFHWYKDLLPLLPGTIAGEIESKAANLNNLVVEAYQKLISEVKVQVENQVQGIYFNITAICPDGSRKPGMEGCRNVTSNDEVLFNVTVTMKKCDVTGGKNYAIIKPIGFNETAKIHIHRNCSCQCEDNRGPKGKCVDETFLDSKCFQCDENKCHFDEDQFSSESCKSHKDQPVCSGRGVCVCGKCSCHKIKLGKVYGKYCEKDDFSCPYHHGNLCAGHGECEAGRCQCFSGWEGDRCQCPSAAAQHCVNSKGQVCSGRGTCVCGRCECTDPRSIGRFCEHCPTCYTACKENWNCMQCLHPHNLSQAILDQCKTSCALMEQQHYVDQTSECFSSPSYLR


Tests used:
[1] = target: human αvβ8 endogenously expressed on cells (human); test: cell-based or functional assay
[2] = target: recombinant human αvβ8 protein (PARS-17102) (human); test: SPR, Biacore T200, anti-murine Fc capture (murine Fc format), human αvβ8 analyte 0-50 nM, 37 C, 1:1 model (FIG. 10)
[3] = target: human αvβ8 endogenously expressed on cells (human)
[4] = target: recombinant human αvβ8 protein (PARS-17102) (human); test: SPR, Biacore kinetic screen at 37 °C, 1:1 binding fit; antibody as ligand, hu.aVb8-17102 as sample; in the presence of divalent cations according to
[5] = target: T1, recombinant human αvβ8 protein …; test: SPR, Biacore T200, antibody captured on protein A chip, aVb8 as analyte, 37 C, 1:1 Langmuir model
Procedure: (§1) The binding affinity of the antibodies was determined by BIAcore™ T200 machine. For kinetics measurements, antibodies were captured on research grade protein A chip (Cytiva, USA) to achieve approximately 60 RU. Ten-fold serial dilutions of human, murine and cyno aVb8 were injected in the same running buffer as above at 37° C. with a flow rate of 100 μL/min. Association rates (ka) and dissociation rates (kd) were calculated using a 1:1 Langmuir binding model (BIAcore™ T200 Evaluation Software version 2.0). The equilibrium dissociation constant (KD) was calculated as the ratio kd/ka. […]

[6] = target: T2, recombinant mouse αvβ8 protein (PARS-17103) (murine, UniProt P43406 31-988; Q0VBD0 43-681, limits assumed); test: as above
T2 construct: Made in house; also called mu.aVb8.17103
T2 sequence (P43406 31-988 limits assumed, chain 1 of 2): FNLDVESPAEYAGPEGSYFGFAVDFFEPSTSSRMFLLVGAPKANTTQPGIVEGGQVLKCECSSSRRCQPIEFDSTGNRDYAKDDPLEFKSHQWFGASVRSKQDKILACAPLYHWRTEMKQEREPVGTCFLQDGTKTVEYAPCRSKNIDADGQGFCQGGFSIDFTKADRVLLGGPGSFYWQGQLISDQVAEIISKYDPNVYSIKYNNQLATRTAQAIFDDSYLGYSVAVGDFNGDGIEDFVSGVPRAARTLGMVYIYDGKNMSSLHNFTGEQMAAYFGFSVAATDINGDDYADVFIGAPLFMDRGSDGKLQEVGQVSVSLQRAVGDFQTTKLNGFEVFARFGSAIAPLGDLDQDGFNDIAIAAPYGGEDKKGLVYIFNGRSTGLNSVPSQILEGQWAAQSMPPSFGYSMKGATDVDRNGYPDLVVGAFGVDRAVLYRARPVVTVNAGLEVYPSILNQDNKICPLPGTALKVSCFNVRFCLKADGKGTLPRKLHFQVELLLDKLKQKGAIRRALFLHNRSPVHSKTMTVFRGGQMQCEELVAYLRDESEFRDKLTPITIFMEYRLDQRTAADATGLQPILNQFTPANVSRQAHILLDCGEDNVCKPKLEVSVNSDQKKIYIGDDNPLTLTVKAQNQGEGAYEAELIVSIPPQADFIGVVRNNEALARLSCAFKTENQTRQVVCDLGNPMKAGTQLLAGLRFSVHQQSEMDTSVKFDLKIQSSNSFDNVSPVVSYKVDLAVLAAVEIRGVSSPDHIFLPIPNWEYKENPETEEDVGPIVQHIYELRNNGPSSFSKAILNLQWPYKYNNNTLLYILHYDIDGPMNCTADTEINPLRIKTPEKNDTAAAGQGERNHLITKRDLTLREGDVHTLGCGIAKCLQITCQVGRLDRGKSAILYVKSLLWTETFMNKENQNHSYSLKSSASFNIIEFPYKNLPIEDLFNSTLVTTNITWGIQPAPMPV
T2 sequence (Q0VBD0 43-681 limits assumed, chain 2 of 2): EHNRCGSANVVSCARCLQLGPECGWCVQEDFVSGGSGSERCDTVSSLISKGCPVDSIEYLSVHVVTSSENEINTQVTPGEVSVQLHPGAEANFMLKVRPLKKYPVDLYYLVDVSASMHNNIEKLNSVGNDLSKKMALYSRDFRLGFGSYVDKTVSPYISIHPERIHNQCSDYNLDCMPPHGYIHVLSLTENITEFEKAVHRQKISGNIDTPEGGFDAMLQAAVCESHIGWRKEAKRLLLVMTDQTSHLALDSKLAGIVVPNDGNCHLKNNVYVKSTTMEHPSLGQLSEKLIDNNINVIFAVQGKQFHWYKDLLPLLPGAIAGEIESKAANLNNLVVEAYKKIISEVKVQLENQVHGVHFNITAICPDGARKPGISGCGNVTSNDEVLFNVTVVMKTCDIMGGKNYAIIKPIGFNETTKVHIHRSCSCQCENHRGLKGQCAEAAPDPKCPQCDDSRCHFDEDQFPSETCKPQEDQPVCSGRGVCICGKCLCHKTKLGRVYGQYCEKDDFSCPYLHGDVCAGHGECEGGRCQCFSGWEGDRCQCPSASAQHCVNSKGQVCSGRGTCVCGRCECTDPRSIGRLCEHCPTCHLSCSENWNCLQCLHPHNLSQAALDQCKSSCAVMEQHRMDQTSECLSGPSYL
Procedure: as §1

cyno.aVb8.13650 = target: T3, cyno.aVb8.13650 (cynomolgus, UniProt A0A2K5WCD3 31-992; G7P0S0 43-684); test: as above
T3 construct: Carries another lot/construct number than cyno.aVb8-19393; kept apart; also called cynomolgus αvβ8
Procedure: as §1

[7] = target: T1, recombinant human αvβ8 protein …; test: SPR, Biacore kinetic screen at 37 °C, 1:1 binding fit; antibody as ligand, hu.aVb8-17102 as sample; in the presence of divalent cations according to
[8] = target: recombinant human αvβ8 protein (PARS-17102) (human); test: SPR, Biacore T200, anti-murine Fc capture (murine Fc format), human αvβ8 analyte 0-50 nM, 37 C, 1:1 model (FIG. 10); below the instrument's detection limit
[9] = target: T1, recombinant human αvβ8 protein …; test: SPR, Biacore kinetic screen at 37 °C, 1:1 binding fit flagged with a warning sign; antibody as ligand, hu.aVb8-17102 as sample; in the presence of divalent cations according to

Row | Molecule | IC50 (nM), experiment #1: LN-229 + 3T3-Nano-human GARP/LTGFβ1 (WT) co-culture, NanoLuc reporter [1] [nM] | IC50 (nM), experiment #2: LN-229 + 3T3-Nano-human GARP/LTGFβ1 (WT) co-culture, NanoLuc reporter [1] [nM] | IC50 (nM), experiment #3: LN-229 + 3T3-Nano-human GARP/LTGFβ1 (non-releasable, NR) co-culture, NanoLuc reporter [1] [nM] | IC50 (nM), experiment #4: LN-229 + 3T3-Nano-human GARP/LTGFβ3 (WT) co-culture, NanoLuc reporter [1] [nM] | Kd [2] [nM] | koff [2] [s⁻¹] | kon [2] [M⁻¹ s⁻¹] | Kd [5] [nM] | koff [5] [s⁻¹] | kon [5] [M⁻¹ s⁻¹] | Kd [6] [nM] | koff [6] [s⁻¹] | kon [6] [M⁻¹ s⁻¹] | Kd (cyno.aVb8.13650) [nM] | koff (cyno.aVb8.13650) [s⁻¹] | kon (cyno.aVb8.13650) [M⁻¹ s⁻¹] | further results
1 | ADWA11 mIgG2a.LALAPG (antibody) | 0.95 | 1.51 | 0.34 | 0.79 | 0.451 | 5.33e-05 | 118000 | – | – | – | – | – | – | – | – | – | –
2 | Isotype control (antibody) | > 333 | > 333 | > 333 | > 333 | – | – | – | – | – | – | – | – | – | – | – | – | –
3 | C6D4 mIgG2a.LALAPG (antibody) | 0.63 | 1.45 | 0.24 | 0.78 | 1.06 | 9.3e-05 | 87800 | – | – | – | – | – | – | – | – | – | IC50 of the TGFb1 reporter signal, co-culture of LN-229 cells with 3T3-Nano GARP/LTGFb1 reporter cells [3]: 2.11 nM; Kd [4]: 3.8 nM; koff [4]: 0.000266 s⁻¹; kon [4]: 69900 M⁻¹ s⁻¹
4 | Rb.aVb8-65 (antibody, V domains shown, Recombinant rabbit monoclonal antibody expressed in Expi293 cells; also called rb.αvβ8-65; rabbit αvβ8-65) VH: QSVEESGGRLVTPGTPLTLTCTVSGIDLSNYAMIWVRQAPGKGLEWIGIISSSDRIWYASWVKGRFTISKTSSTTVDLQMTSLTTEDTATYFCSRSVSNSYFDGWNLWGPGTLVTVSS VL: DIVMTQTPASVEAAVGGTVTIKCQASENINSLLAWYQQKPGQPPKLLIYRASTLASGVPSRFRGSGSGTQFTLTISDLECDDAATYYCQSNYGFTGSGAFFYGFGGGTEVVVE | – | – | – | – | – | – | – | 0.7 | 0.000131 | 187000 | 0.9 | 0.000132 | 146000 | 1.94 | 0.000121 | 62400 | Kd [7]: 1.54 nM; koff [7]: 0.000349 s⁻¹; kon [7]: 227000 M⁻¹ s⁻¹

Continued, in another order:

Row | IC50 (nM), experiment #1: LN-229 + 3T3-Nano-human GARP/LTGFβ1 (WT) co-culture, NanoLuc reporter [1] [nM] | IC50 (nM), experiment #2: LN-229 + 3T3-Nano-human GARP/LTGFβ1 (WT) co-culture, NanoLuc reporter [1] [nM] | IC50 (nM), experiment #3: LN-229 + 3T3-Nano-human GARP/LTGFβ1 (non-releasable, NR) co-culture, NanoLuc reporter [1] [nM] | IC50 (nM), experiment #4: LN-229 + 3T3-Nano-human GARP/LTGFβ3 (WT) co-culture, NanoLuc reporter [1] [nM] | Kd [2] [nM] | koff [2] [s⁻¹] | kon [2] [M⁻¹ s⁻¹] | Kd [5] [nM] | koff [5] [s⁻¹] | kon [5] [M⁻¹ s⁻¹] | Kd [6] [nM] | koff [6] [s⁻¹] | kon [6] [M⁻¹ s⁻¹] | Kd (cyno.aVb8.13650) [nM] | koff (cyno.aVb8.13650) [s⁻¹] | kon (cyno.aVb8.13650) [M⁻¹ s⁻¹] | Molecule | further results
5 | – | – | – | – | < 0.0258 | – | 258000 | – | – | – | – | – | – | – | – | – | αvβ8-65 in the murine Fc format (antibody, V domains shown) VH: EVQLLESGGGLVQPGGSLRLSCAASGIDLSNYAMIWVRQAPGKGLEWVGIISSSDRIWYASWVKGRFTISRDNSKNTLYLQMNSLRAEDTAVYYCSRSVSNSYFDGWNLWGQGTLVTVSS VL: DIQMTQSPSSVSASVGDRVTITCQASENINSLLAWYQQKPGKAPKLLIYRASTLASGVPSRFSGSGSGTDFTLTISSLQPEDFATYYCQSNYGFTGSGAFFYGFGQGTKVEIK | koff [8]: < 1e-05 s⁻¹
6 | – | – | – | – | – | – | – | 1.6 | 0.000164 | 102000 | 1.86 | 0.000184 | 98600 | 6.91 | 0.000293 | 42400 | Rb.aVb8-92 (antibody, V domains shown, Recombinant rabbit monoclonal antibody expressed in Expi293 cells; also called rb.αvβ8-92; rabbit αvβ8-92) VH: QSVEESGGRLVTPGTPLTLTCTVSGFSLSSYAMGWVRQAPGKGLEWIGVIRKDDNTYYGNWAKGRFTISRTSTTVDLKMTSLTAADTATYFCARALNTYVGFPYFNIWGPGTLVTVSS VL: AAVLTQTPSPVSAAVGGTVSISCQSIKSVGDNKWLAWYQQKPGQPPKLLIYDASDLASGVPSRFKGSGSRTQFTLTISDLQCDDAATYYCAGSVSSGDSGFGGGTEVVVA | Kd [9]: 671 nM; koff [9]: 0.000777 s⁻¹; kon [9]: 1160 M⁻¹ s⁻¹
